Laboratory results taken from PMC9734383 (Nature Communications, 2022).

B1: PN-SIA28 Fab (Fab, V domains shown)
VH: QVQLVESGGGVVQPGRSLRLSCAASGFPFSSYGMHWVRQAPGKGLEWVAGVSYDGSYKYYADSVKGRFTISRDSSKSTLYLQMNSLRPEDTAVYYCARPSAIFGIYIILNGLDVWGQGTTVTVSS
VL: EIVLTQSPSSVSASVGDRVTITCRATQGISSWLAWYQQKPGKPPKLLIFGASSLQSGVPSRFSGSGSGTDFTLTISSLQPEDFATYFCQQAHSFPLTFGGGTKVEIK
B2: PN-SIA28 Fab (Fab, V domains shown)
VH: B1 VH
VL: B1 VL
notes: also called PN-SIA28 Fab fragment

Columns and labels:
H3 HA = H3 HA (Influenza A virus H3N2, probably A/Hong …, UniProt Q91MA7, strain); test: SEC; conditions: both partners purified
[1] = biological target: H3 HA (recombinant HA of the panel) (Influenza A virus H3N2, probably A/Hong …, UniProt Q91MA7, biotinylated (in the BLI assay)); test: BLI; conditions: both partners purified

Binder	binding result (H3 HA)	binding result [1]
B1	binds	–
B2	–	binds
